Experimental findings from patent publication US20110086089A1 (UNIVERSITY HEALTH NETWORK, published 2011) are described below.

The experiment has as its target T1, wt.CK2-alpha-prime immobilized on GST-beads (UniProt P19784 1-350).
T1 construct: also called GST-CK2-alpha-prime; recombinant CK2-alpha-prime; not shown: N-terminal GST tag of pGEX-2lambdaT
Description: GST pull-down of in vitro-translated His-tagged p27 mutants on GST-CK2-alpha-prime, anti-His immunoblot. In general terms: In western blotting, separated proteins are transferred to a membrane and probed.

T1 sequence (P19784 whole entry): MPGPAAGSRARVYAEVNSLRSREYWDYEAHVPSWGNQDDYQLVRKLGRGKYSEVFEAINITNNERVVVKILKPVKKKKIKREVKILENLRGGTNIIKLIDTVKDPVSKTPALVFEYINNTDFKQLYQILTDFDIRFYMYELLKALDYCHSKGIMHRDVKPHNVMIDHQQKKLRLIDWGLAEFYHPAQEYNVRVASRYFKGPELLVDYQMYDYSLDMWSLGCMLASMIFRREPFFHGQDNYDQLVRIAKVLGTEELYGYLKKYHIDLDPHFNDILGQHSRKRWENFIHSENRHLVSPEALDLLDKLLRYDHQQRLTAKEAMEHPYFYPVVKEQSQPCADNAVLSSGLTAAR

B1: p27deltaC (p27.1-86), in vitro-translated His-tagged truncation mutant of p27 (other)
chain: MSNVRVSNGSPSLERMDARQADHPKPSACRNLFGPVDHEELTRDLEKHCRDMEEASQRKWNFDFQNHKPLEGKYEWQEVEKGSLPE
notes: also called p27ΔC; not shown: N-terminal His-tag of pEXP2
Turning to B1, the binding result is “no binding”.
